{"source": "patent US20240383950A1", "about": "“RECOMBINANT GLYCAN BINDING PROTEINS AND ITS USE” (UNICHEM LABORATORIES LIMITED, priority 2021, published 2024)", "molecules": {"B1": {"name": "SEQ ID NO. 2: recombinant glycan binding protein, variant of Sclerotium Rolfsii Lectin, disclosed in Indian Patent Application 350/MUM/2009 (protein)", "chain": "TYKITVRVYQTNPDAFFHPVEKTVWKYANGGTWTITDDQHVLTMGGSGTSGTLRFHADNGESFTATFGVHNYKRWCDIVTNLAADETGMVINQQYYSQKNREEARERQLSNYQVKNAKGRNFQIVYTEAEGNDLHANLIIG"}, "B2": {"name": "SEQ ID NO. 3: SEQ ID NO. 2 re-engineered: Serine at 1st position, Glycine at 76th position, Cysteine added at carboxy terminal end (protein)", "chain": "SYKITVRVYQTNPDAFFHPVEKTVWKYANGGTWTITDDQHVLTMGGSGTSGTLRFHADNGESFTATFGVHNYKRWGDIVTNLAADETGMVINQQYYSQKNREEARERQLSNYQVKNAKGRNFQIVYTEAEGNDLHANLIIGC"}, "B3": {"name": "SEQ ID NO. 4: SEQ ID NO. 2 re-engineered: Serine at 1st, Glycine at 76th, Serine added at 142nd and Cysteine at 143rd position (protein)", "chain": "SYKITVRVYQTNPDAFFHPVEKTVWKYANGGTWTITDDQHVLTMGGSGTSGTLRFHADNGESFTATFGVHNYKRWGDIVTNLAADETGMVINQQYYSQKNREEARERQLSNYQVKNAKGRNFQIVYTEAEGNDLHANLIIGSC"}, "B4": {"name": "Conjugate of Example 8: Protein of SEQ ID NO. 3 conjugated to cytotoxic drug MMAE using MC-Val-Cit-PAB-MMAE; DAR value 1.0 (conjugate)", "chain": "B2 chain", "modifications": "MC-Val-Cit-PAB-MMAE conjugate, DAR 1.0", "notes": "DAR value 1.0"}}, "key": {"[1]": {"assay": "Glycan binding study, N-Glycan array"}, "[2]": {"tested_on": "Blood Cancer Cellline MOLT-3", "assay": "MTS-PMS cytotoxicity bioassay, MOLT-3", "details": "80 μg/ml; 5000 cells/well", "from_the_text": "5000 cells/well were used for testing.\n(§5) The drug Doxorubicin was used as system suitability (SST) reference."}, "[3]": {"tested_on": "Ovarian Cancer cell line PA-1", "assay": "MTS-PMS cytotoxicity bioassay, PA-1", "details": "80 μg/ml; 5000 cells/well", "from_the_text": "5000 cells/well were used for testing.\nas §5"}, "[4]": {"tested_on": "bladder cancer cells (T24)", "assay": "Colocalization study in cell organelles by confocal microscopy", "format": "cell-based", "details": "FITC-labelled, 100 μg/mL, 2 h, 37° C."}, "[5]": {"tested_on": "Blood cancer cellline Jurkat E6", "assay": "MTS-PMS cytotoxicity bioassay, Jurkat E6", "details": "80 μg/ml; 5000 cells/well", "from_the_text": "5000 cells/well were used for testing.\nas §5"}, "[6]": {"assay": "Glycan binding study, O-Glycan array, core 2", "details": "O-Glycan array containing 94 glycans"}, "pI of purified protein": {"assay": "pI of purified protein", "format": "physicochemical", "source_text": "The molecular mass and pI of purified protein of SEQ ID NO. 3 and SEQ ID NO."}, "[7]": {"assay": "Stability of expressed protein in TBS buffer", "format": "physicochemical", "details": "for % Single max impurity / % Total impurity / % purity: 10 mM TBS buffer pH 7.8, 2-8° C.", "procedure": "Stability of expressed protein i.e., SEQ ID NO. 3 was evaluated for 2 weeks using 10 mM TBS buffer with pH 7.8 at 2-8° C."}, "[8]": {"tested_on": "human urinary Bladder cancer cell line (T-24)", "assay": "Cytotoxicity bioassay of conjugate, T-24", "format": "cell-based", "details": "72 hours; Cell titer glow", "procedure": "(§1) Bioassay—Cytotoxicity effect Conjugate of Example 8 against ovarian cancer cell line (PA-1) and human urinary Bladder cancer cell line (T-24) was assayed.\n(§2) 5,000 cells/well were plated and incubated at 37° C. overnight.\n(§3) Conjugates/vehicle control dilutions were made in respective media and added to cells. Volume added: 50 uL to each well. […] Each concentration was analysed in triplicates. Media-only wells was used as a control to calculate percent viability. Cell titer glow reagent (volume: 50 uL) was added to each well, the plate was shaken for 5 mins and the luminescence was recorded. Drug Treatment Time: 72 hours. Percent viability was calculated by dividing the luminescence signal obtained for each treated well by the untreated well (media-only control) and multiplying by 100.\n(§4) Data was next transformed using X=Log(x) and then analysed with nonlinear regression (curve fit), Dose Response inhibition−log (inhibitor) vs response (3 parameters) using PRISM software to determine the IC50 value."}, "[9]": {"tested_on": "ovarian cancer cell line (PA-1)", "assay": "Cytotoxicity bioassay of conjugate, PA-1", "format": "cell-based", "details": "72 hours; Cell titer glow", "procedure": "as §1, §2, §3, §4"}}}
{"molecule": "B1", "values": [{"measurement": "binding to N-glycans", "setting": "[1]", "value": "specific binding to N-glycans containing GlcNac at the non-reducing end"}, {"measurement": "% Cytotoxicity on Cell-lines MOLT-3", "setting": "[2]", "value": 46, "unit": "%"}, {"measurement": "% Cytotoxicity on Cell-lines PA-1", "setting": "[3]", "value": 81, "unit": "%"}, {"measurement": "Estimated Kd for T antigen", "setting": "O-Glycan array containing 94 glycans", "value": 0.319, "unit": "µg/mL"}, {"measurement": "binding profile to O-glycans", "setting": "O-Glycan array, T-antigen and its extended core structures", "value": "strong and broad binding profile to O-glycans"}, {"measurement": "colocalization in cell organelles", "setting": "[4]", "value": "colocalized in Mitochondria, Endoplasmic reticulum, Golgi bodies and Plasma membrane"}, {"measurement": "% Cytotoxicity on Cell-lines Jurkat E6", "setting": "[5]", "value": 61, "unit": "%"}, {"measurement": "Estimated Kd for core 2", "setting": "[6]", "value": 0.212, "unit": "µg/mL"}]}
{"molecule": "B2", "values": [{"measurement": "pI", "setting": "pI of purified protein", "value": 6.49}, {"measurement": "% Cytotoxicity on Cell-lines MOLT-3", "setting": "[2]", "value": 43, "unit": "%"}, {"measurement": "% Cytotoxicity on Cell-lines PA-1", "setting": "[3]", "value": 82, "unit": "%"}, {"measurement": "% Cytotoxicity on Cell-lines Jurkat E6", "setting": "[5]", "value": 68, "unit": "%"}, {"measurement": "% Single max impurity", "setting": "[7]; 0 Week", "value": 1.31, "unit": "%"}, {"measurement": "% Total impurity", "setting": "[7]; 0 Week", "value": 1.95, "unit": "%"}, {"measurement": "% purity", "setting": "[7]; 0 Week", "value": 98.05, "unit": "%"}, {"measurement": "% Single max impurity", "setting": "[7]; 1 Week", "value": 0.98, "unit": "%"}, {"measurement": "% Total impurity", "setting": "[7]; 1 Week", "value": 2.66, "unit": "%"}, {"measurement": "% purity", "setting": "[7]; 1 Week", "value": 97.34, "unit": "%"}, {"measurement": "% Single max impurity", "setting": "[7]; 2 Week", "value": 0.86, "unit": "%"}, {"measurement": "% Total impurity", "setting": "[7]; 2 Week", "value": 2.91, "unit": "%"}, {"measurement": "% purity", "setting": "[7]; 2 Week", "value": 97.09, "unit": "%"}, {"measurement": "stability", "setting": "[7]; 2 weeks, 10 mM TBS buffer with pH 7.8 at 2-8° C.", "value": "stable"}]}
{"molecule": "B3", "values": [{"measurement": "pI", "setting": "pI of purified protein", "value": 6.49}]}
{"molecule": "B4", "values": [{"measurement": "IC50", "setting": "[8]", "value": 325, "unit": "nM"}, {"measurement": "IC50", "setting": "[9]", "value": 17.7, "unit": "nM"}]}
